# Results from PMC6854716, “Redesigning N-glycosylation sites in a GH3 β-xylosidase improves the enzymatic efficiency” (Biotechnology for Biofuels, 2019).
# B1: BxlB (GH3 β-xylosidase): BxlBN7 (protein)
# parent chain: MAVFKSWNLALLSSLFIPALCQSNYPDCTTGPLSELPICDTSLSPLERAKSLVSALTLEEKINNTGHEAAGSSRLGLPAYNWWNEALHGVAEKHGVSFEESGDFSYATSFPAPIVLGAAFNDALIRRVAEIISTEARAFSNSDHAGIDYWTPNVNPFKDPRWGRGQETPGEDPLHCSRYVKEFVGGLQGDDPEKPKVVATCKHLAAYDLEEWGGVSRFEFDAKVSAVDLLEYYLPPFKTCAVDASVGAFMCSYNALNGVPACADRYLLQTVLREHWGWEGPGHWVTGDCGAVERIQTYHHYVESGPEAAAAALNAGVDLDCGTWLPSYLGEAERQGLISNETLDAALTRLYTSLVQLGYFDPAEGQPLRSLGWDDVATSEAEELAKTVAIQGTVLLKNIDWTLPLKANGTLALIGPFINFTTELQSNYAGPAKHIPTMIEAAERLGYNVLTAPGTEVNSTSTDGFDDALAIAAEADALIFFGGIDNTVEEESLDRTRIDWPGNQEELILELAELGRPLTVVQFGGGQVDDSALLASAGVGAIVWAGYPSQAGGAGVFDVLTGKAAPAGRLPITQYPKSYVDEVPMTDMNLQPGTDNPGRTYRWYEDAVLPFGFGLHYTTFNVSWAKKAFGPYDAATLARGKNPSSNIVDTFSLAVTNTGDVASDYVALVFASAPELGAQPAPIKTLVGYSRASLIKPGETRKVDVEVTVAPLTRATEDGRVVLYPGEYTLLVDVNDEYPTAKFEIKGDVQVLEKFPLSGNDSD
# B2: BxlB (GH3 β-xylosidase): BxlBN5;7 (protein)
# parent chain: B1 parent chain
# B3: BxlB (GH3 β-xylosidase): BxlBN1;5;7 (protein)
# parent chain: B1 parent chain
# B4: BxlB (GH3 β-xylosidase): BxlBN5 (protein)
# parent chain: B1 parent chain
# B5: BxlB (GH3 β-xylosidase): BxlBN1 (protein)
# parent chain: B1 parent chain
# B6: BxlB (GH3 β-xylosidase): BxlBN1;7 (protein)
# parent chain: B1 parent chain
# B7: BxlB (GH3 β-xylosidase): BxlBN1;5 (protein)
# parent chain: B1 parent chain
# B8: BxlB (GH3 β-xylosidase): BxlBnon-glyc (protein)
# parent chain: B1 parent chain
# B9: BxlB^wt (GH3 β-xylosidase BxlB) (Aspergillus nidulans FGSC A4) (protein)
# chain: NYPDCTTGPLSELPICDTSLSPLERAKSLVSALTLEEKINNTGHEAAGSSRLGLPAYNWWNEALHGVAEKHGVSFEESGDFSYATSFPAPIVLGAAFNDALIRRVAEIISTEARAFSNSDHAGIDYWTPNVNPFKDPRWGRGQETPGEDPLHCSRYVKEFVGGLQGDDPEKPKVVATCKHLAAYDLEEWGGVSRFEFDAKVSAVDLLEYYLPPFKTCAVDASVGAFMCSYNALNGVPACADRYLLQTVLREHWGWEGPGHWVTGDCGAVERIQTYHHYVESGPEAAAAALNAGVDLDCGTWLPSYLGEAERQGLISNETLDAALTRLYTSLVQLGYFDPAEGQPLRSLGWDDVATSEAEELAKTVAIQGTVLLKNIDWTLPLKANGTLALIGPFINFTTELQSNYAGPAKHIPTMIEAAERLGYNVLTAPGTEVNSTSTDGFDDALAIAAEADALIFFGGIDNTVEEESLDRTRIDWPGNQEELILELAELGRPLTVVQFGGGQVDDSALLASAGVGAIVWAGYPSQAGGAGVFDVLTGKAAPAGRLPITQYPKSYVDEVPMTDMNLQPGTDNPGRTYRWYEDAVLPFGFGLHYTTFNVSWAKKAFGPYDAATLARGKNPSSNIVDTFSLAVTNTGDVASDYVALVFASAPELGAQPAPIKTLVGYSRASLIKPGETRKVDVEVTVAPLTRATEDGRVVLYPGEYTLLVDVNDEYPTAKFEIKGDVQVLEKFPLSGNDSD
# notes: homologous secreted expression in A. nidulans A773 (pEXPYR, glaA promoter, A. niger glucoamylase signal peptide); purified by DEAE and Superdex 200; N-glycosylated at N63, N340, N408, N419, N458, N621, N760
# Target: not listed separately
# Experiment: CD thermal melt, 20-100 °C
# Settings: glycan lost; control: BxlBwt
row,Molecule,"stability_or_folding, Tm"
1,B1,decreases
2,B2,"decreases, 55.1 vs 63.8"
3,B3,"decreases, 61.6 vs 63.8"
4,B4,decreases
5,B5,decreases
6,B6,decreases
7,B7,"decreases, 61.1 vs 63.8"

# Target: not listed separately
# Experiment: far-UV CD secondary structure
# Settings: glycan lost; control: BxlBwt
row,Molecule,structure_or_conformation
1,B1,no change
2,B2,no change
3,B3,no change
4,B4,no change
5,B5,no change
6,B6,no change
7,B7,no change
8,B8,no change

# Tested on: O=[N+]([O-])c1ccc(O[C@@H]2OC[C@@H](O)[C@H](O)[C@H]2O)cc1
# Experiment: purified protein
# Assay type: biochemical, Aspergillus nidulans
# Settings: 0.05 M ammonium acetate pH 5.0, 60 °C, 1–20 mM substrate
Molecule,Km [µM],Vmax [µmol/min/mg],kcat [s⁻¹],kcat/Km [M⁻¹ s⁻¹]
BxlB^wt (GH3 β-xylosidase BxlB) (Aspergillus nidulans FGSC A4; N340Q/N408Q/N419Q/N458Q/N621Q/N760Q),2530 ± 230,9.49,13,5130

# Tested on: T1, O=[N+]([O-])c1ccc(O[C@@H]2OC[C@@H](O)[C@H](O)[C@H]2O)cc1
# T1 construct: homologous secreted expression in A. nidulans A773 (pEXPYR, glaA promoter, A. niger glucoamylase signal peptide); purified by DEAE and Superdex 200; N-glycosylated at N63, N340, N408, N419, N458, N621, N760
# Experiment: purified protein
# Assay type: biochemical, Aspergillus nidulans
# Settings: 0.05 M ammonium acetate pH 5.0, 60 °C, 1–20 mM substrate
Molecule,Km [µM],Vmax [µmol/min/mg],kcat [s⁻¹],kcat/Km [M⁻¹ s⁻¹]
BxlB^wt (GH3 β-xylosidase BxlB) (Aspergillus nidulans FGSC A4; N340Q/N408Q/N419Q/N621Q/N760Q),2910 ± 180,21.9,30.1,10300
BxlB^wt (GH3 β-xylosidase BxlB) (Aspergillus nidulans FGSC A4; N340Q/N408Q/N419Q/N621Q/N63Q/N760Q),2710 ± 210,6.08,3.71,–
BxlB^wt (GH3 β-xylosidase BxlB) (Aspergillus nidulans FGSC A4; N340Q/N408Q/N419Q/N621Q),2490 ± 430,17.3,23.7,9510
BxlB^wt (GH3 β-xylosidase BxlB) (Aspergillus nidulans FGSC A4; N340Q/N408Q/N419Q/N458Q/N621Q/N63Q),3190 ± 220,3.42,4.37,1270
BxlB^wt (GH3 β-xylosidase BxlB) (Aspergillus nidulans FGSC A4; N340Q/N408Q/N419Q/N458Q/N621Q/N63Q/N760Q),2360 ± 110,10.1,13.9,5870
BxlB^wt (GH3 β-xylosidase BxlB) (Aspergillus nidulans FGSC A4; N340Q/N408Q/N419Q/N621Q/N63Q),2810 ± 110,20.5,28,9940
BxlB^wt (GH3 β-xylosidase BxlB) (Aspergillus nidulans FGSC A4; N340Q/N408Q/N419Q/N458Q/N621Q),9920 ± 1050,4.12,5.64,570

# Target: not listed separately
# Experiment: ρNP-X activity of intracellular extract
# Settings: glycan lost; control: BxlBwt
row,Molecule,"enzymatic_activity, fold_change"
1,B3,increases

# Substrate: O=[N+]([O-])c1ccc(O[C@@H]2OC[C@@H](O)[C@H](O)[C@H]2O)cc1
# Experiment: purified protein
# Assay type: biochemical, Aspergillus nidulans
# Settings: 0.05 M ammonium acetate pH 5.0, 60 °C, 1–20 mM substrate
# Remark: another data set of the same source
Molecule,Km [µM],Vmax [µmol/min/mg],kcat [s⁻¹],kcat/Km [M⁻¹ s⁻¹]
B9,2060 ± 130,9.55,13.1,6340

# Target: not listed separately
# Experiment: Michaelis-Menten kinetics, purified enzyme, pH 5.0, 60 °C
# Settings: glycan lost; control: BxlBwt
row,Molecule,"enzymatic_activity, kcat_Km"
1,B1,"decreases, 1.27 vs 6.34"
2,B2,"increases, 9.94 vs 6.34"
3,B3,"increases, 9.51 vs 6.34, 50% higher catalytic efficiency as compared to the wild type"
4,B4,"decreases, 0.61 vs 6.34"
5,B5,"decreases, 5.13 vs 6.34"
6,B6,"decreases, 0.57 vs 6.34"
7,B7,"increases, 10.33 vs 6.34"
8,B8,"decreases, 5.87 vs 6.34, BxlBnon-glyc catalytic efficiency was reduced by 7%"

# Target: not listed separately
# Experiment: western blot of crude extracellular extract, polyclonal anti-BxlB
# Settings: glycan lost; control: BxlBwt
row,Molecule,expression_or_secretion
1,B1,decreases
2,B2,decreases
3,B3,decreases
4,B4,decreases
5,B5,decreases
6,B6,decreases
7,B7,decreases
8,B8,decreases
